Measured values from publication PMC12572689, “Characterization of the Specific Binding Between Aptamers and Cytochrome c With Pressure‐Assisted Capillary Electrophoresis Frontal Analysis”.

B1: Apt61 (ssDNA)
DNA: AGTGTGAAATATCTAAACTAAATGTGGAGGGTGGGACGGGAAGAAGTTTATTTTTCACACT
B2: Apt76 (ssDNA)
DNA: ATCGATAAGCTTCCAGAGCCGTGTCTGGGGCCGACCGGCGCATTGGGTACGTTGTTGCCGTAGAATTCCTGCAGCC

How the values were obtained:
cytochrome c [1] = biological target: T1, cytochrome c (Equus caballus (equine heart), UniProt P00004 2-105); test: PACE-FA; specific binding fit; n=1.22; lambda 7.11e3 M-1; 10 mM NH4OAc pH 6.8 (fluorescence: 2.0 uM cyt c, 2.0-14.0 uM aptamer, 30 min); PACE-FA: NH4OAc pH 6.8, HPC-coated capillary; temperature not stated; conditions: protein: commercial; tags: none
T1 sequence (P00004 2-105): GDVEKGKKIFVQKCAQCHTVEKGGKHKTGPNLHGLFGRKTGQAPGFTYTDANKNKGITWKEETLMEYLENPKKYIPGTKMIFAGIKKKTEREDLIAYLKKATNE

cytochrome c [2] = biological target: T1, cytochrome c; test: fluorescence titration; cyt c emission at 292 nm; Benesi-Hildebrand; 10 mM NH4OAc pH 6.8 (fluorescence: 2.0 uM cyt c, 2.0-14.0 uM aptamer, 30 min); PACE-FA: NH4OAc pH 6.8, HPC-coated capillary; temperature not stated; conditions: protein: commercial, tags: none
cytochrome c [3] = biological target: T1, cytochrome c; test: PACE-FA; raw data, uncorrected; n=1.47; 10 mM NH4OAc pH 6.8 (fluorescence: 2.0 uM cyt c, 2.0-14.0 uM aptamer, 30 min); PACE-FA: NH4OAc pH 6.8, HPC-coated capillary; temperature not stated; conditions: protein: commercial; tags: none
cytochrome c [4] = biological target: T1, cytochrome c; test: PACE-FA; mobility correction; n=1.30; 10 mM NH4OAc pH 6.8 (fluorescence: 2.0 uM cyt c, 2.0-14.0 uM aptamer, 30 min); PACE-FA: NH4OAc pH 6.8, HPC-coated capillary; temperature not stated; conditions: protein: commercial; tags: none
cytochrome c [5] = biological target: T1, cytochrome c; test: PACE-FA; specific binding fit; n=1.25; lambda 6.90e4 M-1; 10 mM NH4OAc pH 6.8 (fluorescence: 2.0 uM cyt c, 2.0-14.0 uM aptamer, 30 min); PACE-FA: NH4OAc pH 6.8, HPC-coated capillary; temperature not stated; conditions: protein: commercial; tags: none; multi-loop structure (as claimed in text)
cytochrome c [6] = biological target: T1, cytochrome c; test: PACE-FA; raw data, uncorrected; n=2.05; 10 mM NH4OAc pH 6.8 (fluorescence: 2.0 uM cyt c, 2.0-14.0 uM aptamer, 30 min); PACE-FA: NH4OAc pH 6.8, HPC-coated capillary; temperature not stated; conditions: protein: commercial; tags: none; multi-loop structure (as claimed in text)
cytochrome c [7] = biological target: T1, cytochrome c; test: PACE-FA; mobility correction; n=1.85; 10 mM NH4OAc pH 6.8 (fluorescence: 2.0 uM cyt c, 2.0-14.0 uM aptamer, 30 min); PACE-FA: NH4OAc pH 6.8, HPC-coated capillary; temperature not stated; conditions: protein: commercial; tags: none; multi-loop structure (as claimed in text)
cytochrome c [8] = biological target: T1, cytochrome c; test: PACE-FA; raw data, uncorrected; n=1.06; 10 mM NH4OAc pH 6.8 (fluorescence: 2.0 uM cyt c, 2.0-14.0 uM aptamer, 30 min); PACE-FA: NH4OAc pH 6.8, HPC-coated capillary; temperature not stated; conditions: protein: commercial; tags: none
cytochrome c [9] = biological target: T1, cytochrome c; test: PACE-FA; specific binding fit; n=0.84; lambda 2.83e4 M-1; 10 mM NH4OAc pH 6.8 (fluorescence: 2.0 uM cyt c, 2.0-14.0 uM aptamer, 30 min); PACE-FA: NH4OAc pH 6.8, HPC-coated capillary; temperature not stated; conditions: protein: commercial; tags: none
cytochrome c [10] = biological target: T1, cytochrome c; test: PACE-FA; mobility correction; n=1.10; 10 mM NH4OAc pH 6.8 (fluorescence: 2.0 uM cyt c, 2.0-14.0 uM aptamer, 30 min); PACE-FA: NH4OAc pH 6.8, HPC-coated capillary; temperature not stated; conditions: protein: commercial; tags: none

Row | Binder | Ka (cytochrome c [1]) | Ka (cytochrome c [2]) | Ka (cytochrome c [3]) | Ka (cytochrome c [4]) | Ka (cytochrome c [2]; multi-loop structure (as claimed in text)) | Ka (cytochrome c [5]) | Ka (cytochrome c [6]) | Ka (cytochrome c [7]) | Ka (cytochrome c [8]) | Ka (cytochrome c [9]) | Ka (cytochrome c [10])
1 | B1 | 712000 M⁻¹ | 625000 M⁻¹ | 1.06e+06 M⁻¹ | 643000 M⁻¹ |  |  |  |  |  |  | 
2 | B2 |  |  |  |  | 868000 M⁻¹ | 1.53e+06 M⁻¹ | 1.65e+06 M⁻¹ | 676000 M⁻¹ |  |  | 
3 | CCGTGTCTGGGGCCGACCGGCGCATTGGGTACGTTGTTGC (ssDNA) [Apt40] |  | 151000 M⁻¹ |  |  |  |  |  |  | 2.01e+06 M⁻¹ | 840000 M⁻¹ | 545000 M⁻¹
